In article PMC8298264, “Function of cofactor Akirin2 in the regulation of gene expression in model human neutrophil-like HL60 cells” (Bioscience Reports, 2021):

B1: sp¦P37837¦TALDO_HUMAN (protein, UniProt P37837 1-337, looked up)
Transaldolase: MSSSPVKRQRMESALDQLKQFTTVVADTGDFHAIDEYKPQDATTNPSLILAAAQMPAYQELVEEAIAYGRKLGGSQEDQIKNAIDKLFVLFGAEILKKIPGRVSTEVDARLSFDKDAMVARARRLIELYKEAGISKDRILIKLSSTWEGIQAGKELEEQHGIHCNMTLLFSFAQAVACAEAGVTLISPFVGRILDWHVANTDKKSYEPLEDPGVKSVTKIYNYYKKFSYKTIVMGASFRNTGEIKALAGCDFLTISPKLLGELLQDNAKLVPVLSAKAAQASDLEKIHLDEKSFRWLHNEDQMAVEKLSDGIRKFAADAVKLERMLTERMFNAENGK
B2: sp¦Q9UK45¦LSM7_HUMAN (protein, UniProt Q9UK45 2-103, looked up)
U6 snRNA-associated Sm-like …: ADKEKKKKESILDLSKYIDKTIRVKFQGGREASGILKGFDPLLNLVLDGTIEYMRDPDDQYKLTEDTRQLGLVVCRGTSVVLICPQDGMEAIPNPFIQQQDA
B3: sp¦Q9GZU8¦PIP30_HUMAN (protein, UniProt Q9GZU8 1-254, looked up)
PSME3-interacting protein: MDGGDDGNLIIKKRFVSEAELDERRKRRQEEWEKVRKPEDPEECPEEVYDPRSLYERLQEQKDRKQQEYEEQFKFKNMVRGLDEDETNFLDEVSRQQELIEKQRREEELKELKEYRNNLKKVGISQENKKEVEKKLTVKPIETKNKFSQAKLLAGAVKHKSSESGNSVKRLKPDPEPDDKNQEPSSCKSLGNTSLSGPSIHCPSAAVCIGILPGLGAYSGSSDSESSSDSEGTINATGKIVSSIFRTNTFLEAP
B4: sp¦P04083¦ANXA1_HUMAN (protein, UniProt P04083 2-346, looked up)
Annexin A1: AMVSEFLKQAWFIENEEQEYVQTVKSSKGGPGSAVSPYPTFNPSSDVAALHKAIMVKGVDEATIIDILTKRNNAQRQQIKAAYLQETGKPLDETLKKALTGHLEEVVLALLKTPAQFDADELRAAMKGLGTDEDTLIEILASRTNKEIRDINRVYREELKRDLAKDITSDTSGDFRNALLSLAKGDRSEDFGVNEDLADSDARALYEAGERRKGTDVNVFNTILTTRSYPQLRRVFQKYTKYSKHDMNKVLDLELKGDIEKCLTAIVKCATSKPAFFAEKLHQAMKGVGTRHKALIRIMVSRSEIDMNDIKAFYQKMYGISLCQAILDETKGDYEKILVALCGGN
B5: sp¦Q9NPF4¦OSGEP_HUMAN (protein, UniProt Q9NPF4 1-335, looked up)
tRNA N6-adenosine …: MPAVLGFEGSANKIGVGVVRDGKVLANPRRTYVTPPGTGFLPGDTARHHRAVILDLLQEALTESGLTSQDIDCIAYTKGPGMGAPLVSVAVVARTVAQLWNKPLVGVNHCIGHIEMGRLITGATSPTVLYVSGGNTQVIAYSEHRYRIFGETIDIAVGNCLDRFARVLKISNDPSPGYNIEQMAKRGKKLVELPYTVKGMDVSFSGILSFIEDVAHRMLATGECTPEDLCFSLQETVFAMLVEITERAMAHCGSQEALIVGGVGCNVRLQEMMATMCQERGARLFATDERFCIDNGAMIAQAGWEMFRAGHRTPLSDSGVTQRYRTDEVEVTWRD
B6: Gc-globulin (protein, UniProt P02774 17-474, looked up)
Vitamin D-binding protein: LERGRDYEKNKVCKEFSHLGKEDFTSLSLVLYSRKFPSGTFEQVSQLVKEVVSLTEACCAEGADPDCYDTRTSALSAKSCESNSPFPVHPGTAECCTKEGLERKLCMAALKHQPQEFPTYVEPTNDEICEAFRKDPKEYANQFMWEYSTNYGQAPLSLLVSYTKSYLSMVGSCCTSASPTVCFLKERLQLKHLSLLTTLSNRVCSQYAAYGEKKSRLSNLIKLAQKVPTADLEDVLPLAEDITNILSKCCESASEDCMAKELPEHTVKLCDNLSTKNSKFEDCCQEKTAMDVFVCTYFMPAAQLPELPDVELPTNKDVCDPGNTKVMDKYTFELSRRTHLPEVFLSKVLEPTLKSLGECCDVEDSTTCFNAKGPLLKKELSSFIDKGQELCADYSENTFTEYKKKLAERLKAKLPDATPTELAKLVNKHSDFASNCCSINSPPLYCDSEIDAELKNIL
B7: sp¦P21953¦ODBB_HUMAN (protein, UniProt P21953 51-392, looked up)
2-oxoisovalerate …: VAHFTFQPDPEPREYGQTQKMNLFQSVTSALDNSLAKDPTAVIFGEDVAFGGVFRCTVGLRDKYGKDRVFNTPLCEQGIVGFGIGIAVTGATAIAEIQFADYIFPAFDQIVNEAAKYRYRSGDLFNCGSLTIRSPWGCVGHGALYHSQSPEAFFAHCPGIKVVIPRSPFQAKGLLLSCIEDKNPCIFFEPKILYRAAAEEVPIEPYNIPLSQAEVIQEGSDVTLVAWGTQVHVIREVASMAKEKLGVSCEVIDLRTIIPWDVDTICKSVIKTGRLLISHEAPLTGGFASEISSTVQEECFLNLEAPISRVCGYDTPFPHIFEPFYIPDKWKCYDALRKMINY
B8: sp¦P12236¦ADT3_HUMAN (protein, UniProt P12236 1-298, looked up)
ADP/ATP translocase 3: MTEQAISFAKDFLAGGIAAAISKTAVAPIERVKLLLQVQHASKQIAADKQYKGIVDCIVRIPKEQGVLSFWRGNLANVIRYFPTQALNFAFKDKYKQIFLGGVDKHTQFWRYFAGNLASGGAAGATSLCFVYPLDFARTRLAADVGKSGTEREFRGLGDCLVKITKSDGIRGLYQGFSVSVQGIIIYRAAYFGVYDTAKGMLPDPKNTHIVVSWMIAQTVTAVAGVVSYPFDTVRRRMMMQSGRKGADIMYTGTVDCWRKIFRDEGGKAFFKGAWSNVLRGMGGAFVLVLYDELKKVI
B9: sp¦P09429¦HMGB1_HUMAN (protein, UniProt P09429 1-215, looked up)
High mobility group protein B1: MGKGDPKKPRGKMSSYAFFVQTCREEHKKKHPDASVNFSEFSKKCSERWKTMSAKEKGKFEDMAKADKARYEREMKTYIPPKGETKKKFKDPNAPKRPPSAFFLFCSEYRPKIKGEHPGLSIGDVAKKLGEMWNNTAADDKQPYEKKAAKLKEKYEKDIAAYRAKGKPDAAKKGVVKAEKSKKKKEEEEDEEDEEDEEEEEDEEDEDEEEDDDDE
B10: sp¦O75534¦CSDE1_HUMAN (protein, UniProt O75534 1-798, looked up)
Cold shock domain-containing …: MSFDPNLLHNNGHNGYPNGTSAALRETGVIEKLLTSYGFIQCSERQARLFFHCSQYNGNLQDLKVGDDVEFEVSSDRRTGKPIAVKLVKIKQEILPEERMNGQVVCAVPHNLESKSPAAPGQSPTGSVCYERNGEVFYLTYTPEDVEGNVQLETGDKINFVIDNNKHTGAVSARNIMLLKKKQARCQGVVCAMKEAFGFIERGDVVKEIFFHYSEFKGDLETLQPGDDVEFTIKDRNGKEVATDVRLLPQGTVIFEDISIEHFEGTVTKVIPKVPSKNQNDPLPGRIKVDFVIPKELPFGDKDTKSKVTLLEGDHVRFNISTDRRDKLERATNIEVLSNTFQFTNEAREMGVIAAMRDGFGFIKCVDRDVRMFFHFSEILDGNQLHIADEVEFTVVPDMLSAQRNHAIRIKKLPKGTVSFHSHSDHRFLGTVEKEATFSNPKTTSPNKGKEKEAEDGIIAYDDCGVKLTIAFQAKDVEGSTSPQIGDKVEFSISDKQRPGQQVATCVRLLGRNSNSKRLLGYVATLKDNFGFIETANHDKEIFFHYSEFSGDVDSLELGDMVEYSLSKGKGNKVSAEKVNKTHSVNGITEEADPTIYSGKVIRPLRSVDPTQTEYQGMIEIVEEGDMKGEVYPFGIVGMANKGDCLQKGESVKFQLCVLGQNAQTMAYNITPLRRATVECVKDQFGFINYEVGDSKKLFFHVKEVQDGIELQAGDEVEFSVILNQRTGKCSACNVWRVCEGPKAVAAPRPDRLVNRLKNITLDDASAPRLMVLRQPRGPDNSMGFGAERKIRQAGVID
B11: sp¦P23921¦RIR1_HUMAN (protein, UniProt P23921 1-792, looked up)
Ribonucleoside-diphosphate …: MHVIKRDGRQERVMFDKITSRIQKLCYGLNMDFVDPAQITMKVIQGLYSGVTTVELDTLAAETAATLTTKHPDYAILAARIAVSNLHKETKKVFSDVMEDLYNYINPHNGKHSPMVAKSTLDIVLANKDRLNSAIIYDRDFSYNYFGFKTLERSYLLKINGKVAERPQHMLMRVSVGIHKEDIDAAIETYNLLSERWFTHASPTLFNAGTNRPQLSSCFLLSMKDDSIEGIYDTLKQCALISKSAGGIGVAVSCIRATGSYIAGTNGNSNGLVPMLRVYNNTARYVDQGGNKRPGAFAIYLEPWHLDIFEFLDLKKNTGKEEQRARDLFFALWIPDLFMKRVETNQDWSLMCPNECPGLDEVWGEEFEKLYASYEKQGRVRKVVKAQQLWYAIIESQTETGTPYMLYKDSCNRKSNQQNLGTIKCSNLCTEIVEYTSKDEVAVCNLASLALNMYVTSEHTYDFKKLAEVTKVVVRNLNKIIDINYYPVPEACLSNKRHRPIGIGVQGLADAFILMRYPFESAEAQLLNKQIFETIYYGALEASCDLAKEQGPYETYEGSPVSKGILQYDMWNVTPTDLWDWKVLKEKIAKYGIRNSLLIAPMPTASTAQILGNNESIEPYTSNIYTRRVLSGEFQIVNPHLLKDLTERGLWHEEMKNQIIACNGSIQSIPEIPDDLKQLYKTVWEISQKTVLKMAAERGAFIDQSQSLNIHIAEPNYGKLTSMHFYGWKQGLKTGMYYLRTRPAANPIQFTLNKEKLKDKEKVSKEEEEKERNTAAMVCSLENRDECLMCGS
B12: sp¦P52789¦HXK2_HUMAN (protein, UniProt P52789 1-917, looked up)
Hexokinase-2: MIASHLLAYFFTELNHDQVQKVDQYLYHMRLSDETLLEISKRFRKEMEKGLGATTHPTAAVKMLPTFVRSTPDGTEHGEFLALDLGGTNFRVLWVKVTDNGLQKVEMENQIYAIPEDIMRGSGTQLFDHIAECLANFMDKLQIKDKKLPLGFTFSFPCHQTKLDESFLVSWTKGFKSSGVEGRDVVALIRKAIQRRGDFDIDIVAVVNDTVGTMMTCGYDDHNCEIGLIVGTGSNACYMEEMRHIDMVEGDEGRMCINMEWGAFGDDGSLNDIRTEFDQEIDMGSLNPGKQLFEKMISGMYMGELVRLILVKMAKEELLFGGKLSPELLNTGRFETKDISDIEGEKDGIRKAREVLMRLGLDPTQEDCVATHRICQIVSTRSASLCAATLAAVLQRIKENKGEERLRSTIGVDGSVYKKHPHFAKRLHKTVRRLVPGCDVRFLRSEDGSGKGAAMVTAVAYRLADQHRARQKTLEHLQLSHDQLLEVKRRMKVEMERGLSKETHASAPVKMLPTYVCATPDGTEKGDFLALDLGGTNFRVLLVRVRNGKWGGVEMHNKIYAIPQEVMHGTGDELFDHIVQCIADFLEYMGMKGVSLPLGFTFSFPCQQNSLDESILLKWTKGFKASGCEGEDVVTLLKEAIHRREEFDLDVVAVVNDTVGTMMTCGFEDPHCEVGLIVGTGSNACYMEEMRNVELVEGEEGRMCVNMEWGAFGDNGCLDDFRTEFDVAVDELSLNPGKQRFEKMISGMYLGEIVRNILIDFTKRGLLFRGRISERLKTRGIFETKFLSQIESDCLALLQVRAILQHLGLESTCDDSIIVKEVCTVVARRAAQLCGAGMAAVVDRIRENRGLDALKVTVGVDGTLYKLHPHFAKVMHETVKDLAPKCDVSFLQSEDGSGKGAALITAVACRIREAGQR

test system: human HL60 cells; assay: SWATH-MS proteomics, differential protein representation, akirin2 KO vs WT HL60 cells; type: cell-based; details: SWATH-MS, akirin2 KO vs WT HL60 cells; over-represented in KO
Method in brief: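 WT and akirin2 KO HL60 lysates (150 µg, n=3 biological replicates) were FASP trypsin-digested and desalted. A spectral library was built by IDA from 3 µg digests, then 5 µg per sample went to variable-window SWATH DIA over a 120-min 5–30% acetonitrile gradient. Identifications were accepted at 1% global FDR, with total-area-sum normalization.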

Molecule	Fold Change	Log (Fold Change)
B1	1.543	0.1885
B2	1.561	0.1935
B3	1.523	0.1827
B4	1.503	0.1771
B5	1.5342	0.1859
B6	5.464	0.7375
B7	1.558	0.1926
B8	1.53	0.1848
B9	1.517	0.1809
B10	1.544	0.1886
B11	1.511	0.1792
B12	1.502	0.1767
